Blank lines part the entries; values can stand above or below the binder they belong to.
Legend:
Assay in all cases: cryo-EM structure
RPB1 = RPB1 (human (endogenous in HeLa), UniProt P24928 1-1970)
TBP = TBP (human, UniProt P20226 1-339)
RPB2 = RPB2 (human (endogenous in HeLa), UniProt P30876 1-1174)

Chain of TBP (P20226 whole entry): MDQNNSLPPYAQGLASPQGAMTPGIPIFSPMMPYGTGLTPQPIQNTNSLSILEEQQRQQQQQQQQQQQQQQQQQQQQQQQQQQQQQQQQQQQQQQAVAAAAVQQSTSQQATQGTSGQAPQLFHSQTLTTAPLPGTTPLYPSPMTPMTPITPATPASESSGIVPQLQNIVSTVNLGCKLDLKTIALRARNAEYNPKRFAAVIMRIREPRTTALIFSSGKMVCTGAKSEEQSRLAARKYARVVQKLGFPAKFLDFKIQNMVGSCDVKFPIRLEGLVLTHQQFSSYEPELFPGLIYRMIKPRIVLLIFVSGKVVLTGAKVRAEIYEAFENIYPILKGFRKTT

binding result (RPB1): binds
B1: TFIIEα (natural protein)
chain: MADPDVLTEVPAALKRLAKYVIRGFYGIEHALALDILIRNSCVKEEDMLELLKFDRKQLRSVLNNLKGDKFIKCRMRVETAADGKTTRHNYYFINYRTLVNVVKYKLDHMRRRIETDERDSTNRASFKCPVCSSTFTDLEANQLFDPMTGTFRCTFCHTEVEEDESAMPKKDARTLLARFNEQIEPIYALLRETEDVNLAYEILEPEPTEIPALKQSKDHAATTAGAASLAGGHHREAWATKGPSYEDLYTQNVVINMDDQEDLHRASLEGKSAKERPIWLRESTVQGAYGSEDMKEGGIDMDAFQEREEGHAGPDDNEEVMRALLIHEKKTSSAMAGSVGAAAPVTAANGSDSESETSESDDDSPPRPAAVAVHKREEDEEEDDEFEEVADDPIVMVAGRPFSYSEVSQRPELVAQMTPEEKEAYIAMGQRMFEDLFE

binding result (TBP): binds
binding result (RPB2): binds
B2: RAP30 (natural protein, human)
chain: MAERGELDLTGAKQNTGVWLVKVPKYLSQQWAKASGRGEVGKLRIAKTQGRTEVSFTLNEDLANIHDIGGKPASVSAPREHPFVLQSVGGQTLTVFTESSSDKLSLEGIVVQRAECRPAASENYMRLKRLQIEESSKPVRLSQQLDKVVTTNYKPVANHQYNIEYERKKKEDGKRARADKQHVLDMLFSAFEKHQYYNLKDLVDITKQPVVYLKEILKEIGVQNVKGIHKNTWELKPEYRHYQGEEKSD
